According to PMC5799255, “Histone H5 is a potent Antimicrobial Agent and a template for novel Antimicrobial Peptides” (Scientific Reports, 2018):
Read-outs that look alike come from different tables or passages of the source.

Legend:
[1] = tested on: Escherichia coli (O157:H7); experiment: Broth microdilution assay (MIC/MBC), planktonic bacteria; format: cell-based
Procedure: (§1) Antimicrobial activity of histone H5 against a variety of Gram-positive and Gram-negative planktonic bacteria was evaluated using a broth microdilution assay. The average minimum inhibitory concentration (MIC) and minimum bactericidal concentration (MBC) values (mean ± SD, n = 3) for six Gram-positive and four Gram-negative bacterial species are shown in Table 2. […] E. faecalis was the least susceptible to histone H5 inhibition, requiring over 32 µg/mL for complete bacterial growth inhibition which was the highest histone H5 concentration tested.
(§2) The bacterial strains tested in this study were Gram-positive bacteria (Bacillus cereus (ATCC 11778), methicillin-sensitive Staphylococcus aureus (ATCC 6538), methicillin-resistant Staphylococcus aureus (ATCC 29247), Listeria monocytogenes (ATCC 19112), Enterococcus faecalis (clinical isolate) and vancomycin-resistant Enterococcus (ATCC 51299)) and Gram-negative bacteria Escherichia coli K12 (ATCC 29425), Escherichia coli (O157:H7), Pseudomonas aeruginosa (ATCC 15442) and Salmonella typhimurium (ATCC 1535)). Bacterial colonies from glycerol stocks were plated on LB agar plates (BHI agar plates for L. monocytogenes) and incubated overnight at 37 °C. Single colonies from these plates were grown in 3 mL of LB broth (BHI broth for L. monocytogenes) overnight at 37 °C and shaken at 250 rpm. […] The bacterial suspension was pelleted at 3,000 × g, 4 °C for 10 minutes and washed with PBS (twice), and then adjusted to 10^5–10^6 CFUs/mL in PBS.
(§3) Supplementary Information
(§4) Broth microdilution assay
(§5) The protocol for this step of the project was based on established methods22. […] The microplate was incubated in the EON microplate reader overnight at 206 oscillations/min and at 37°C. […]
This assay is based on a previously described protocol22. The potential for hemolytic activity was assessed using rat red blood cells (RBCs) which were obtained from the University of Ottawa Animal Care Facility and in accordance with the University of Ottawa Animal Care

[2] = tested on: methicillin-resistant Staphylococcus aureus (ATCC 29247); experiment: as above; format: cell-based; settings: mean ± SD, n = 3
Procedure: as §1, §2, §3, §4
(§6) The protocol for this step of the project was based on established methods22. Histone H5 or the peptides were dissolved in sterile water, pH 7.4, serially two-fold diluted and aliquoted in a 1:1 (v/v) ratio with bacteria. Kanamycin or ampicillin served as a positive control for inhibition, and sterile water (pH 7.4) as a negative control for inhibition. The tubes were then incubated for 3 hours at 37°C an d shaken at 200 rpm. Next, 100 µL of each tube and 100µL of LB broth (BHI broth for L. monocytogenes) was plated in wells of a 96-well microplate. The microplate was incubated in the EON microplate reader overnight at 206 oscillations/min and at 37°C. During this period, the EON microplate spectrophotometer and Gen5 data analysis software (BioTek, Winooski, VT, USA) were used to monitor the growth of bacteria by measuring the optical density at 600 nm every 30 minutes for 18 hours. The lowest protein concentration without visible bacterial growth was designated as the minimum inhibitory concentration (MIC). Bacteria (10 µL) from the wells at MIC, MIC x 2 and MIC x 3 concentrations of H5 were plated on LB agar (BHI agar for L. monocytogenes) and incubated at 37°C for 18 hours. The lowest concentration of histone H5 without a single colony was designated as the minimum bactericidal concentration (MBC). […]

[3] = tested on: vancomycin-resistant Enterococcus (ATCC 51299); experiment: as above; format: cell-based; settings: mean ± SD, n = 3
Procedure: as §1, §2, §3, §4, §6

[4] = tested on: methicillin-sensitive Staphylococcus aureus (ATCC 6538); experiment: as above; format: cell-based; settings: mean ± SD, n = 3
Procedure: as §1, §2, §3, §4, §6

[5] = tested on: Enterococcus faecalis (clinical isolate); experiment: as above; format: cell-based; settings: mean ± SD, n = 3
Procedure: as §1, §2, §3, §4, §6

[6] = tested on: Salmonella typhimurium (ATCC 1535); experiment: as above; format: cell-based
Procedure: as §1, §2, §3, §4, §6

[7] = tested on: Escherichia coli K12 (ATCC 29425); experiment: as above; format: cell-based
Procedure: as §1, §2, §3, §4, §6

[8] = tested on: Bacillus cereus (ATCC 11778); experiment: as above; format: cell-based; settings: mean ± SD, n = 3
Procedure: as §1, §2, §3, §4, §6

[9] = tested on: Gram-positive and Gram-negative planktonic bacteria; experiment: Broth microdilution assay, summary over the planktonic bacteria tested; format: cell-based; settings: bactericidal when MBC ≤4 times the MIC
Procedure: as §1
The bacterial strains tested in this study were Gram-positive bacteria (Bacillus cereus (ATCC 11778), methicillin-sensitive Staphylococcus aureus (ATCC 6538), methicillin-resistant Staphylococcus aureus (ATCC 29247), Listeria monocytogenes (ATCC 19112), Enterococcus faecalis (clinical isolate) and vancomycin-resistant Enterococcus (ATCC 51299)) and Gram-negative bacteria Escherichia coli K12 (ATCC 29425), Escherichia coli (O157:H7), Pseudomonas aeruginosa (ATCC 15442) and Salmonella typhimurium (ATCC 1535)). Bacterial colonies from glycerol stocks were plated on LB agar plates (BHI agar plates for L. monocytogenes) and incubated overnight at 37 °C. […]
as §5

[10] = tested on: Listeria monocytogenes (ATCC 19112); settings: for MIC: broth microdilution
Procedure: (§7) Antimicrobial activity of histone H5 against a variety of Gram-positive and Gram-negative planktonic bacteria was evaluated using a broth microdilution assay.
(§8) The antimicrobial activity of these peptides against Gram-positive and Gram-negative planktonic bacteria was evaluated using broth microdilution assays.
as §2, §3, §4
(§9) The protocol for this step of the project was based on established methods22. Histone H5 or the peptides were dissolved in sterile water, pH 7.4, serially two-fold diluted and aliquoted in a 1:1 (v/v) ratio with bacteria. Kanamycin or ampicillin served as a positive control for inhibition, and sterile water (pH 7.4) as a negative control for inhibition. The tubes were then incubated for 3 hours at 37°C an d shaken at 200 rpm. Next, 100 µL of each tube and 100µL of LB broth (BHI broth for L. monocytogenes) was plated in wells of a 96-well microplate. The microplate was incubated in the EON microplate reader overnight at 206 oscillations/min and at 37°C. During this period, the EON microplate spectrophotometer and Gen5 data analysis software (BioTek, Winooski, VT, USA) were used to monitor the growth of bacteria by measuring the optical density at 600 nm every 30 minutes for 18 hours. The lowest protein concentration without visible bacterial growth was designated as the minimum inhibitory concentration (MIC). Bacteria (10 µL) from the wells at MIC, MIC x 2 and MIC x 3 concentrations of H5 were plated on LB agar (BHI agar for L. monocytogenes) and incubated at 37°C for 18 hours. The lowest concentration of histone H5 without a single colony was designated as the minimum bactericidal concentration (MBC).

[11] = tested on: Pseudomonas aeruginosa (ATCC 15442)
Procedure: as §7, §8, §2, §3, §4, §9

[12] = broth microdilution, 3 h at 37 °C, then OD600 growth 18 h in LB broth, mean ± SD, n = 3
[13] = plated on LB agar, 37 °C 18 h, lowest concentration without a single colony, mean ± SD, n = 3
[14] = value in the figure, representative of three independent trials, each in triplicate
[15] = broth microdilution, 3 h at 37 °C, then OD600 growth 18 h in LB broth
[16] = plated on LB agar, 37 °C 18 h, lowest concentration without a single colony

B1: histone H5: erythrocyte-specific linker histone purified from chicken erythrocytes, 190 amino acids (protein, UniProt P02259 2-190, looked up)
Histone H5: TESLVLSPAPAKPKRVKASRRSASHPTYSEMIAAAIRAEKSRGGSSRQSIQKYIKSHYKVGHNADLQIKLSIRRLLAAGVLKQTKGVGASGSFRLAKSDKAKRSPGKKKKAVRRSTSPKKAARPRKARSPAKKPKATARKARKKSRASPKKAKKPKTVKAKSRKASKAKKVKRSKPRAKSGARKSPKKK
**Q.** What does the source list for B1?
**A.** MIC [1, 12]: 4.9 ± 1.5 µg/mL; MBC [1, 13]: 4.9 ± 1.5 µg/mL; MIC [1, 14]: 6.7 µg/mL; MIC [2, 15]: 2.4 ± 0.8 µg/mL; MBC [2, 16]: 2.7 ± 1.2 µg/mL; MIC [3, 15]: 4 ± 1.2 µg/mL; MBC [3, 16]: 4.4 ± 1.9 µg/mL; MIC [4, 15]: 3.8 ± 0.4 µg/mL; MBC [4, 16]: 4 ± 0 µg/mL; MIC ([5]; broth microdilution, 3 h at 37 °C, then OD600 growth 18 h in LB broth, highest concentration tested 32 µg/mL): >32 µg/mL; MBC [5, 16]: >32 µg/mL; MIC [6, 12]: 1.9 ± 1.8 µg/mL; MBC [6, 13]: 1.9 ± 1.8 µg/mL; MIC [6, 14]: 4 µg/mL; MIC [7, 12]: 4.9 ± 1.5 µg/mL; MBC [7, 13]: 6.7 ± 2.3 µg/mL; MIC [7, 14]: 6.7 µg/mL; MIC ([8]; broth microdilution, 3 h at 37 °C with bacteria 1:1 (v/v), then OD600 growth 18 h in LB broth, lowest concentration without visible growth): 3.8 ± 1.7 µg/mL; MBC ([8]; wells at MIC, MIC x 2, MIC x 3 plated on LB agar, 37 °C 18 h, lowest concentration without a single colony): 3.8 ± 1.7 µg/mL; MBC/MIC [9]: ≤ 4; MIC ([10]; MIC given in molar units): 0.2 ± 0 µM; MIC ([10]; 3 h at 37 °C, then OD600 growth 18 h in BHI broth, mean ± SD, n = 3): 4 ± 0 µg/mL; MBC ([10]; plated on BHI agar, 37 °C 18 h, lowest concentration without a single colony, mean ± SD, n = 3): 4.4 ± 0.8 µg/mL; MIC ([11]; broth microdilution, MIC given in molar units): 0.1 ± 0.1 µM; MIC [11, 12]: 2.9 ± 1 µg/mL; MBC [11, 13]: 2.9 ± 1 µg/mL; MIC [11, 14]: 4 µg/mL
